In US9085632B2, “Biological materials and uses thereof” (PEPTINNOVATE LIMITED, priority 2008, dated 2015):
“Also recorded” adds a separate entry of the source. Where two headings read alike, the source gives them in different places.

Tests used:
[1] = test system: ovalbumin challenged mice; type: in vivo; conditions: for levels of total IgE circulating in serum: 0.005 μg/mouse, FIG. 13; for recruitment of total cells to the airways / recruitment of eosinophils to the airways: intra-nasal; for recruitment of total cells to the airways: Cpn60.1 1 μg, FIG. 10; for recruitment of eosinophils to the airways: Cpn60.1 0.1 and 1 μg, peptide 4 0.005 μg, FIG. 11
[2] = test system: spleen cells of C57Bl/6 mice; type: cell-based, C57BI/6 mice; conditions: FIG. 8; for IL-12 release compared with Cpn60.1 at lower concentrations: lower concentrations (0.001-0.1 μg/ml)
[3] = test system: ovalbumin challenged mice; type: in vivo; conditions: 24 h after repeated ovalbumin challenge, 10 μg intra-tracheal; for bronchial hyper-responsiveness to methacholine: FIG. 2; for recruitment of eosinophils to the airways (airways inflammation): percentage of eosinophils vs ovalbumin alone, FIG. 1; for levels of cytokines in BAL fluid (cytokine release in the lung): FIG. 3
Description: Allergic inflammation in the lung is induced by 2 intraperitoneal injections of 10 μg of ovalbumin (OVA) in 1 mg of alum with 7 days interval between them. Control animals receive alum only. On day 14, all animals are exposed to an aerosol of OVA for 25 minutes, once a day for 3 consecutive days. All measurements are performed 24 h after the last antigen challenge. […]

[4] = test system: ovalbumin challenged mice; conditions: previously demonstrated, Riffo-Vasquez et al. 2004; cited from earlier work
CFA-treated rats = test: Complete Freund's Adjuvant (CFA)-induced hyperalgesia; type: in vivo, male Wistar rats; conditions: 50 & 500 μg/kg subcutaneously for 7 days; compared to ibuprofen 100 mg/kg; FIGS. 14 and 15
Description: (§1) The effect of Cpn60.1 has been investigated in 2 models of pain, Complete Freund's Adjuvant (CFA)-induced hyperalgesia and Ultra Violet Burn-induced hyperalgesia. Mechanical hyperalgesia was measured using Von Frey filaments applied with increasing force to the hind paw. Thermal hyperalgesia was measured using the time taken to withdraw the hind paw from a heat source. Cpn60.1 (50 & 500 μg/kg) was chronically administered to male Wistar rats (200 g) subcutaneously for 7 days. Every alternate day behavioural responses to mechanical and thermal allodynia were recorded. After baseline recordings, CFA was injected in to the hind paw to induce hyperalgesia and behavioural tests were performed. […] Another model of hyperalgesia was tested, this time using UV burn to induce allodynia. Again, Cpn60.1 had little effect at inhibiting hyperalgesia compared to the group treated with ibuprofen (FIGS. 16 and 17).

UV-treated rats = test: Ultra Violet Burn-induced hyperalgesia; type: in vivo, male Wistar rats; conditions: compared to the group treated with ibuprofen; FIGS. 16 and 17
Description: as §1

[5] = test system: bone marrow dendritic cells; test: LPS-induced IL12 production by dendritic cells after chaperonin pre-incubation; type: cell-based, Balb/c mice; conditions: pre-incubation 24 hours, then LPS (10 ng/ml) further 24 h; FIG. 6
Description: (§2) Bone marrow cells from Balb/c mice were collected and cultured for 6 days in complete Dulbecco's Modified Eagle Medium containing 8 ng/ml of mouse GM-CSF. On day 6 of culture, the cells were collected, re-plated for 1 hour for removal of adherent cells, washed and plated at […] in 6-wells plates for analysis of surface markers expression and transference experiments and at 10^5 cells/well in 96-wells plate for cytokine measurements. In other experiments, cells were incubated at 10^6 cells/well for 24 h with the chaperonins and then another further 24 h with LPS (10 ng/ml).
Pre-incubation of DC's with Cpn60.1 but not Cpn10 for 24 hours inhibited IL12 production induced by LPS (FIG. 6).

[6] = test system: human peripheral blood monocytes; test: Human monocyte assay, TNF-alpha secretion (ELISA); type: cell-based; conditions: for LPS-induced TNF-alpha secretion: pre-treatment 1 hour, then LPS (1 ng/ml) 24 hours, FIGS. 18, 20
Description: We have established a human monocyte assay to compare the efficacy of Cpn60.1 and various peptide sequences of this protein. Human monocytes were obtained by density-dependent centrifugation from peripheral venus blood from healthy volunteers. Monocytes were then isolated and purified with cells adjusted to a density of 2×10^6 cells/ml which were incubated for 1 hour 30 minutes. The plates were then washed twice with Hanks solution. 0.9 ml of RPMI medium was then added to each well followed by polymyxin-B (5 μg/ml). 30 minutes later, 0.1 ml of Cpn at 0.0001-1000 ng/ml or peptides were added to the wells. Cells were then incubated at 37° C., 5% CO2 for 1 hour. The medium was removed and cells washed. 0.9 ml of medium was added to each well followed by 0.1 ml of LPS (1 ng/ml) and left to incubate for 24 hours. Supernatant was taken from each well and frozen for Enzyme Linked Immunosorbent Assay (ELISA).

[7] = test system: spleen cells collected from TLR4KO mice; test: IL-12 release in spleen cells from TLR4KO mice; type: cell-based; conditions: FIG. 9
[8] = test system: spleen cells from TLR2KO mice; test: IL-12 release in spleen cells from TLR2KO mice; type: cell-based; conditions: FIG. 9
LPS-treated mice = test: LPS-induced neutrophil recruitment to the lung (non-allergic inflammation); type: in vivo, Female Balb/c mice
Description: Female Balb/c mice were pre-treated intranasally with Cpn60.1 (1 μg/ml) for 3 days in the absence or following pre-treatment with polymyxin B (5 μg/ml) to rule out any effect of LPS contamination. 30 minutes after the last dose of Cpn60.1, mice were treated with LPS (1 μg/ml). Neutrophil influx and TNF-alpha release in the lungs were determined by bronchoalveolar lavage 24 hours later.

[9] = test system: co-culture of dendritic cells and RD11.10 T cells; test: IL4 release in dendritic cell / T cell co-culture; type: cell-based, mice; conditions: DC pre-treated 10 μg/ml 24 h, FIG. 7
Description: as §2
DC pre-treated with Cpn60.1 (10 μg/ml) or Cpn10 (10 μg/ml) for 24 h suppressed the release of IL4 from RD11.10 T cells in a DC/T cell co-culture. After 6 days of culture, cells were stimulated with anti-CD3 and anti-CD28 for further 24 hours and supernatants collected. IL5 and IL10 were not detected in this culture (FIG. 7).

[10] = test system: bone marrow dendritic cells; test: IL-12 production by bone marrow dendritic cells pulsed with chaperonins; type: cell-based, Balb/c mice; conditions: 48 h; Cpn60.1 0.1-30 μg/ml, Cpn10 10 μg/ml; FIG. 5
Description: as §2

[11] = test system: OVA-sensitized recipient mice; test: Transfer of chaperonin pre-treated dendritic cells to OVA-sensitized recipient mice; type: in vivo; conditions: dendritic cells pre-treated in vitro 24 h with 10 μg/ml, given topically to lungs; FIG. 4
Description: as §2
The DC's were pre-treated in vitro for 24 h with Cpn10 (10 μg/ml) and then administrated topically to the lungs of OVA-sensitized recipient mice.

[12] = 24 h after repeated ovalbumin challenge
[13] = 24 h after repeated ovalbumin challenge, listed as Cpn60.1-peptide 4

DGSVVVNKVSELPAGHGLNVNTLSYGDLAAD (listed as Mycobacterium tuberculosis) [Peptide 4]
levels of total IgE circulating in serum [1, 12]: affected total IgE production
levels of total IgE circulating in serum [1, 13]: significantly inhibited
levels of IL-5 in BAL fluid ([1]; 24 h after repeated ovalbumin challenge, FIG. 12): not caused by an interference with the production of IL-5
levels of IL-5 in BAL fluid ([1]; 24 h after repeated ovalbumin challenge, FIG. 12, listed as Cpn60.1-peptide 4): not significantly inhibited
recruitment of total cells to the airways [1, 12]: inhibited
recruitment of eosinophils to the airways [1, 12]: significant reduction
recruitment of eosinophils to the airways [1, 13]: inhibited
IL-12 release compared with Cpn60.1 at higher concentration ([2]; higher concentration (0.1-30 μg/ml), polymixin B): reduced effect in comparison to Cpn60.1
IL-12 release compared with Cpn60.1 at lower concentrations ([2]; polymixin B): more effective than Cpn60.1

LTTETVVVDKPAKAEDHDHHHGHAH (listed as Mycobacterium tuberculosis) [Peptide 6]
IL-12 release compared with Cpn60.1 at lower concentrations ([2]; polymixin B): less potent effect

Cpn60.2: M. tuberculosis chaperonin polypeptide chaperonin 60.2
bronchial hyper-responsiveness to methacholine [3]: not
recruitment of eosinophils to the airways (airways inflammation) [3]: not
lung inflammation in a murine model of asthma [4]: not

B1: Cpn60.1: chaperonin protein Chaperonin 60.1 of Mycobacterium tuberculosis, amino acid sequence shown in FIG. 25 (protein)
chain: MSKLIEYDETARRAMEVGMDKLADTVRVTLGPRGRHVVLAKAFGGPTVTNDGVTVAREIELEDPFEDLGAQLVKSVATKTNDVAGDGTTTATILAQALIKGGLRLVAAGVNPIALGVGIGKAADAVSEALLASATPVSGKTGIAQVATVSSRDEQIGDLVGEAMSKVGHDGVVSVEESSTLGTELEFTEGIGFDKGFLSAYFVTDFDNQQAVLEDALILLHQDKISSLPDLLPLLEKVAGTGKPLLIVAEDVEGEALATLVVNAIRKTLKAVAVKGPYFGDRRKAFLEDLAVVTGGQVVNPDAGMVLREVGLEVLGSARRVVVSKDDTVIVDGGGTAEAVANRAKHLRAEIDKSDSDWDREKLGERLAKLAGGVAVIKVGAATETALKERKESVEDAVAAAKAAVEEGIVPGGGASLIHQARKALTELRASLTGDEVLGVDVFSEALAAPLFWIAANAGLDGSVVVNKVSELPAGHGLNVNTLSYGDLAADGVIDPVKVTRSAVLNASSVARMVLTTETVVVDKPAKAEDHDHHHGHAH
CFA-induced hyperalgesia (mechanical and thermal) (CFA-treated rats): Neither dose of Cpn60.1 reduced CFA-induced hyperalgesia
UV burn-induced hyperalgesia (mechanical and thermal) (UV-treated rats): little effect
IL12 production induced by LPS [5]: inhibited
TNF-alpha release induced by LPS, percent of control values ([6]; Cpn60.1 vs Cpn60.1 peptides, FIG. 21): suppress
concentration of maximum inhibition of LPS-induced TNF-α secretion ([6]; although not significant, FIG. 18): 1 ng/mL
TNF-alpha secretion induced by the substance alone ([6]; no LPS): able to stimulate human monocytes to induce TNF-alpha secretion
LPS-induced TNF-alpha secretion in the presence of polymyxin-B ([6]; polymyxin-B 5 μg/ml, FIG. 19): suppresses
LPS-induced TNF-alpha secretion [6]: suppresses; also recorded: inhibited TNF-alpha secretion at low doses
IL-12 response of TLR4KO spleen cells compared to wild type C57bl/6 [7]: reduced response; also recorded: significantly refractory
recruitment of total cells to the airways ([1]; […]): significantly inhibited
recruitment of total cells to the airways ([1]; […], listed as Cpn60): inhibited
recruitment of eosinophils to the airways ([1]; […]): significant reduction
recruitment of eosinophils to the airways ([1]; […], listed as Cpn60): inhibited
levels of IL-5 in BAL fluid ([1]; mouse, in vivo): not significantly inhibited; also recorded: not caused by an interference with the production of IL-5
IL-12 response of TLR2KO spleen cells [8]: refractory
TNF-alpha secretion in the lungs (LPS-treated mice; intranasal 1 μg/ml for 3 days, LPS 1 μg/ml, lavage 24 hours later, FIG. 24): not significantly attenuated
LPS-induced neutrophilia (neutrophils recovered from lavage) (LPS-treated mice; intranasal 1 μg/ml for 3 days, LPS 1 μg/ml, lavage at 24 hours, FIG. 24): reduced LPS-induced neutrophilia; also recorded: suppression in neutrophilia
neutrophil recruitment with the substance alone (LPS-treated mice; no LPS, FIG. 23): No neutrophil recruitment
effect of polymyxin B pre-treatment on suppression of neutrophil recruitment (LPS-treated mice; polymyxin B (5 μg/ml)): made no difference
levels of IL4 in DC/T cell co-culture ([9]; […]): suppressed
IL-12 release ([2]; 0.001-30 μg/ml, 24 h, polymixin B 5 μg/ml): induce IL-12 release
bronchial hyper-responsiveness to methacholine [3]: reduced; also recorded: significantly inhibit
levels of cytokines in BAL fluid (cytokine release in the lung) [3]: inhibited; also recorded: significantly inhibit
recruitment of eosinophils to the airways (airways inflammation) [3]: inhibited; also recorded: significantly inhibit
IL12 production by dendritic cells [10]: produced IL12 in a dose-dependant manner; also recorded: induced the release of IL-12 in a dose dependent-manner
lung inflammation in a murine model of asthma [4]: suppressed

B2: Cpn10: M. tuberculosis chaperonin polypeptide chaperonin 10 (protein, UniProt P9WPE5 2-100, looked up)
Co-chaperonin GroES: AKVNIKPLEDKILVQANEAETTTASGLVIPDTAKEKPQEGTVVAVGPGRWDEDGEKRIPLDVAEGDTVIYSKYGGTEIKYNGEEYLILSARDVLAVVSK
eosinophils migration to the lung [11]: significantly inhibited
IL12 production induced by LPS [5]: not
LPS-induced TNF-alpha secretion [6]: does not suppress; also recorded: failed to inhibit
levels of IL4 in DC/T cell co-culture ([9]; 6 days co-culture, anti-CD3 and anti-CD28 24 hours): suppressed
bronchial hyper-responsiveness to methacholine [3]: reduced; also recorded: significantly inhibit
levels of cytokines in BAL fluid (cytokine release in the lung) [3]: significantly inhibit
recruitment of eosinophils to the airways (airways inflammation) [3]: inhibited; also recorded: significantly inhibit
IL12 production by dendritic cells [10]: induced low levels; also recorded: induced lower levels of IL-12 release in comparison to LPS and Cpn60.1
lung inflammation in a murine model of asthma [4]: suppressed
